Results from IntAct's records for PubMed 24685146.

B1: Vinculin (Gallus gallus (Chicken)), P12003-1 (parent)
chain: MPVFHTRTIESILEPVAQQISHLVIMHEEGEVDGKAIPDLTAPVSAVQAAVSNLVRVGKETVQTTEDQILKRDMPPAFIKVENACTKLVRAAQMLQADPYSVPARDYLIDGSRGILSGTSDLLLTFDEAEVRKIIRVCKGILEYLTVAEVVETMEDLVTYTKNLGPGMTKMAKMIDERQQELTHQEHRVMLVNSMNTVKELLPVLISAMKIFVTTKNTKSQGIEEALKNRNFTVEKMSAEINEIIRVLQLTSWDEDAWASKDTEAMKRALALIDSKMNQAKGWLRDPNAPPGDAGEQAIRQILDEAGKAGELCAGKERREILGTCKTLGQMTDQLADLRARGQGATPMAMQKAQQVSQGLDLLTAKVENAARKLEAMTNSKQAIAKKIDAAQNWLADPNGGSEGEEHIRGIMSEARKVAELCEEPKERDDILRSLGEISALTAKLSDLRRHGKGDSPEARALAKQIATSLQNLQSKTNRAVANTRPVKAAVHLEGKIEQAQRWIDNPTVDDRGVGQAAIRGLVAEGRRLANVMMGPYRQDLLAKCDRVDQLAAQLADLAARGEGESPQARAIAAQLQDSLKDLKARMQEAMTQEVSDVFSDTTTPIKLLAVAATAPSDTPNREEVFEERAANFENHAARLGATAEKAAAVGTANKTTVEGIQATVKSARELTPQVVSAARILLRNPGNQAAYEHFETMKNQWIDNVEKMTGLVDEAIDTKSLLDASEEAIKKDLDKCKVAMANMQPQMLVAGATSIARRANRILLVAKREVENSEDPKFREAVKAASDELSKTISPMVMDAKAVAGNISDPGLQKSFLDSGYRILGAVAKVREAFQPQEPDFPPPPPDLEHLHLTDELAPPKPPLPEGEVPPPRPPPPEEKDEEFPEQKAGEAINQPMMMAARQLHDEARKWSSKGNDIIAAAKRMALLMAEMSRLVRGGSGNKRALIQCAKDIAKASDEVTRLAKEVAKQCTDKRIRTNLLQVCERIPTISTQLKILSTVKATMLGRTNISDEESEQATEMLVHNAQNLMQSVKETVREAEAASIKIRTDAGFTLRWVRKTPWYQ

Variants of: B1
Conditions: with acts_rabit ACTA1, P68135

Variant	effect of a mutation on the interaction
V1001A	decreasing interaction strength
I997A	decreasing interaction strength
